Measured values from publication doi:10.1101/2022.06.06.494913 (bioRxiv, 2022).

Target: EIIA^Glc (UniProt P69783 2-169)
Test: SPR + ELISA

Sequence of EIIA^Glc (P69783 2-169): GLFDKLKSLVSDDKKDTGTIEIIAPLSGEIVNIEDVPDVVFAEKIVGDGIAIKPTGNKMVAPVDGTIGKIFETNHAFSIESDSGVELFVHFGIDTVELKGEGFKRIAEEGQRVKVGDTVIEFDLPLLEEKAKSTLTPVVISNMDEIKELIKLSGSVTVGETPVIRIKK

B1: EIIB^Glc (domain or fragment)
chain: EDATEDAKATGTSEMAPALVAAFGGKENITNLDACITRLRVSVADVSKVDQAGLKKLGAAGVVVAGSGVQAIFGTKSDNLKTEMDEYIRN
- Kd: > 10 µM
